The results in this text go back to PMC7092865.

Read-outs that look alike come from different tables or passages of the source.

In data set [1] the target is T1, SUDc5b (SARS coronavirus TOR2, UniProt P0C6U8 1207-1380). The data set can be described thus: zone-interference gel electrophoresis.
Data set [2] has as its target T2, SUD full-length (Nsp3c) (SARS coronavirus TOR2, UniProt P0C6U8 1167-1544). Put plainly: EMSA.
Data set [3] addresses T1, SUDc5b. Put plainly: EMSA. Background: Mobility shift assays separate free from complexed probe on a gel.
For data set [4], the target named is T2, SUD full-length (Nsp3c). Put plainly: EMSA. The source holds these as a separate data set.
Data set [5] deals with T1, SUDc5b. Put plainly: EMSA. The source holds these as a separate data set.

B1: 2(+) (ssDNA)
DNA: CATCTATGAGGGGGGTTTACTATC
With B1, the Kd (as a rule, the equilibrium constant for the complex coming apart) with SUDc5b [1] was ~1000 nM.

B2: bbc3-G14 RNA (ssRNA)
RNA: GGGUGACACUGGGGGGGGGGGGGGCUCUCCUCUCGGUGCUCCUUCACUC
On to B2, for which the binding result with SUD full-length (Nsp3c) [2] and with SUDc5b [3] was “binds” throughout.

B3: 3(-) (ssDNA)
DNA: ATGTAATGCGGGGGGCACTACGTT
As for B3, the Kd with SUDc5b [1] is ~1000 nM.

B4: bbc3-A14 RNA (ssRNA)
RNA: GGGUGACACUAAAAAAAAAAAAAACUCUCCUCUCGGUGCUCCUUCACUC
As to B4, the binding result in the data set with SUD full-length (Nsp3c) [4] and with SUDc5b [5] was “no binding” throughout.
